Results on four sequences are retold here after patent US20160030477.

Test in all cases: cell_activity
One data set has as its system ZFN 44271 (synthetic). To be noted: pair 44298:44271, K562, day 3 (36.6% day 10; GFP 0.2%).
In the next data set the test system is ZFN 49812 (synthetic). To be noted: pair 50773/49812, K562, AAV6 donor.
The test system of the next data set is ZFN 44298 (synthetic). The note with it: pair 44298:44271, K562, day 3 (36.6% day 10; GFP 0.2%).
For another data set, the system named is ZFN 50773 (synthetic). The note with it: pair 50773/49812, K562, AAV6 donor.

With “GCCAGTGGCAGGCACCAGATCTCTGTAC (double strand) [IL2RG 44271 site]”, in the data set on ZFN 44271 (synthetic), the activity turned out to be 42.8 % indels.

Take “CTTTTATGACCCATTTGGAAGAAATAAA (double strand) [RAG1 site 4 (55002/55005/49812)]”: in the data set with ZFN 49812 (synthetic), the activity (% targeted integration) worked out at 5.

“TTACAATCATGTGGGCAGAATTGAAAAG (double strand) [IL2RG 44298 site]” showed an activity in the data set on ZFN 44298 (synthetic) of 42.8 % indels.

Take “ATGATAAAGCTGCAAACCCAAAGAAACT (double strand) [RAG1 site 4 (50773)]”: in the data set on ZFN 50773 (synthetic), the activity (% targeted integration) is 5.
